Reference: the Human Domainome abundance scans (Beltran et al. 2025)
± gives the uncertainty stated by the source.

B1: Cold shock protein CspB, residues 1 to 66; numbered along this chain, P41016 (parent)
chain: MQRGKVKWFNNEKGYGFIEVEGGSDVFVHFTAIQGEGFKTLEEGQEVSFEIVQGNRGPQAANVVKL

Variants of: B1
Test: abundance fitness (aPCA) (normalised: wild type 0, dead -1); higher = more abundant; growth selection in yeast, the domain comes from the species named
Settings: Bacillus caldolyticus

Variant | abundance fitness
K65W | -0.145 ± 0.055
K65T | -0.003 ± 0.055
K65M | -0.078 ± 0.048
K65P | 0.025 ± 0.064
K65R | 0.004 ± 0.044
K65C | -0.035 ± 0.049
K65N | -0.051 ± 0.057
K65F | -0.098 ± 0.05
K65H | 0.014 ± 0.06
K65L | -0.052 ± 0.037
K65G | 0.023 ± 0.074
K65S | -0.015 ± 0.035
K65D | -0.019 ± 0.082
L66Y | -0.054 ± 0.12
L66P | -0.022 ± 0.043
L66D | -0.101 ± 0.18
L66M | -0.018 ± 0.057
L66A | -0.055 ± 0.065
L66Q | 0.021 ± 0.057
L66I | -0.044 ± 0.083
L66R | -0.018 ± 0.042
L66W | 0.004 ± 0.05
L66V | 0.025 ± 0.063
L66H | -0.214 ± 0.11
L66E | -0.01 ± 0.12
L66F | 0.033 ± 0.086

Variant | abundance fitness
L66T | -0.023 ± 0.057
L66G | 0.005 ± 0.08
L66S | -0.016 ± 0.04
L66C | -0.067 ± 0.084
V64Y | -0.054 ± 0.059
V64R | -0.003 ± 0.035
V64E | -0.003 ± 0.056
V64Q | 0.032 ± 0.088
V64H | -0.057 ± 0.099
V64M | -0.064 ± 0.066
V64F | 0.011 ± 0.046
V64K | -0.029 ± 0.068
V64T | -0.012 ± 0.067
V64W | -0.042 ± 0.053
V64L | -0.015 ± 0.038
V64S | -0.019 ± 0.04
V64N | -0.02 ± 0.087
V64P | -0.731 ± 0.089
V64A | -0.03 ± 0.044
V64D | -0.057 ± 0.072
V64G | -0.042 ± 0.035
V64C | 0.032 ± 0.07
N62D | 0.189 ± 0.42
N62I | -0.299 ± 0.39
N62Q | 0.152 ± 0.43
V63Y | -0.798 ± 0.082

Variant | abundance fitness
V63L | -0.018 ± 0.03
V63T | -0.432 ± 0.053
V63C | 0.009 ± 0.083
V63A | -0.205 ± 0.044
V63I | -0.126 ± 0.054
V63P | -0.643 ± 0.052
V63H | -0.771 ± 0.1
V63W | -0.774 ± 0.07
V63K | -0.721 ± 0.071
V63R | -0.71 ± 0.042
V63G | -0.873 ± 0.062
V63M | -0.283 ± 0.05
V63N | -0.528 ± 0.073
V63F | -1.01 ± 0.085
V63E | -0.782 ± 0.077
V63Q | -1.13 ± 0.18
A61Y | 0.015 ± 0.076
A61P | -0.828 ± 0.062
A61R | 0.015 ± 0.035
A61V | -0.06 ± 0.06
A61N | -0.061 ± 0.063
A61W | -0.003 ± 0.058
A61T | -0.072 ± 0.039
A61Q | 0.012 ± 0.047
A61S | 0.008 ± 0.04
